In publication doi:10.1101/2023.06.09.544295 (bioRxiv, 2023):

Experiments:
[1] = system: CMKLR1; parameters: method as in 4 sources, one per row (each row's own in cited_ref): ref [28] = [28]; PMID 25437209; doi:10.1371/journal.pone.0112925; 28 Graham K. L. A novel CMKLR1 small molecule antagonist suppresses CNS autoimmune inflammatory disease. PLoS One 9 , e112925 , doi: 10.1371/journal.pone.0112925 ( 2014 ). 25437209 PMC4249827 ||| ref [9] = [9]; PMID 25548799; doi:10.1007/s00011-014-0792-7; 9 Mariani F. & Roncucci L. Chemerin/chemR23 axis in inflammation onset and resolution. Inflamm Res 64 , 85 – 95 , doi: 10.1007/s00011-014-0792-7 ( 2015 ). 25548799 ||| ref [25]–[27] = [25]; PMID 17339491; doi:10.4049/jimmunol.178.6.3912; 25 Arita M. Resolvin E1 selectively interacts with leukotriene B4 receptor BLT1 and ChemR23 to regulate inflammation. J Immunol 178 , 3912 – 3917 , doi: 10.4049/jimmunol.178.6.3912 ( 2007 ). 17339491 || [26]; PMID 19906641; doi:10.1074/jbc.M109.044131; 26 Ohira T. Resolvin E1 receptor activation signals phosphorylation and phagocytosis. J Biol Chem 285 , 3451 – 3461 , doi: 10.1074/jbc.M109.044131 ( 2010 ). 19906641 PMC2823415 || [27]; PMID 25637017; doi:10.4049/jimmunol.1402166; 27 Herova M. , Schmid M. , Gemperle C. & Hersberger M. ChemR23, the receptor for chemerin and resolvin E1, is expressed and functional on M1 but not on M2 macrophages. J Immunol 194 , 2330 – 2337 , do ||| ref [2]–[5] = [2]; PMID 17635925; doi:10.1074/jbc.M700793200; 2 Goralski K. B. Chemerin, a novel adipokine that regulates adipogenesis and adipocyte metabolism. J Biol Chem 282 , 28175 – 28188 , doi: 10.1074/jbc.M700793200 ( 2007 ). 17635925 || [3]; PMID 17767914; doi:10.1016/j.bbrc.2007.08.104; 3 Roh S. G. Chemerin--a new adipokine that modulates adipogenesis via its own receptor. Biochem Biophys Res Commun 362 , 1013 – 1018 , doi: 10.1016/j.bbrc.2007.08.104 ( 2007 ). 17767914 || [4]; PMID 29848608; doi:10.1530/JOE-18-0174; 4 Helfer G. & Wu Q. F. Chemerin: a multifaceted adipokine involved in metabolic disorders. J Endocrinol 238 , R79 – R94 , doi: 10.1530/JOE-18-0174 ( 2018 ). 29848608 PMC6026924 || [5]; PMID 29279348; doi:10.1124/pr.116.013177; 5 Kennedy A. J. & Davenport A. P. International Union of Basic and Clinical Pharmacology CIII: Chemerin Receptors CMKLR1 (Chemerin(1)) and GPR1 (Chemerin(2)) Nomenclature, Pharmacology, and Function.; conditions: cited from earlier work
Text: Other isoforms of chemerin due to cleavage at different sites of the C-terminal region have also been detected in vivo with ... || The apparent contradictory functional roles of CMKLR1 in inflammation may be associated with the spatiotemporal regulation of the inflammation processes in cells. It is possible that in the early stage of inflammation the CMKLR1 signaling is mainly pro-inflammatory by promoting chemotaxis and activation of DCs and macrophages; whereas at the late stage of inflammation CMKLR1 activation can induce pro-resolving pathways to dampen inflammation.

[2] = molecular target: T1, wild type human CMKLR1 with the N-terminal 28-amino acid segment of human β2-adrenergic receptor fused to its … (Homo sapiens (Human), UniProt P07550); assay: cryo-EM structure of co-purified complex; chemerin9 agonist, Gβ1γ2, scFv16 and apyrase (nucleotide-free); Gαi1 carries dominant negative mutations S47N/G203A/E245A/A326S
T1 chain: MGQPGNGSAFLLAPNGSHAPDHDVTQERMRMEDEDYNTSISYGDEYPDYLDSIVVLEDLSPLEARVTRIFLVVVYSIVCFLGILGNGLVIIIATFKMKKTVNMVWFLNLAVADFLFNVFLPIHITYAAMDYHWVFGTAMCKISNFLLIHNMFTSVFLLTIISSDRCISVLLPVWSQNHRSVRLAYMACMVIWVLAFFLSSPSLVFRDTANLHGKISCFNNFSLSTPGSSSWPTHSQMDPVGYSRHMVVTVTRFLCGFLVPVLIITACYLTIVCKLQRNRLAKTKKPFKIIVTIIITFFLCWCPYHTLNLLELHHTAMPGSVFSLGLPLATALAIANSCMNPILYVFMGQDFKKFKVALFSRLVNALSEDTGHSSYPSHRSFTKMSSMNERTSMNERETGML

[3] = system: primary human macrophages; assay: Macrophage differentiation assay, cell surface marker expression by flow cytometry; type: cell-based
Text: HLA-DR is a class II major histocompatibility complex cell surface molecule, a signature cell marker for antigen presenting cells (APCs), while CD86 is a selective ligand for the costimulatory molecule CD28, the activation of which is indispensable for optimal T cell prime and activation; together, HLA-DR and CD86 are signature cell surface markers for the canonical M1-like macrophages. On the other hand, CD206, the mannose receptor (MMR), is a glycosylated surface protein belonging to the scavenger receptor family. Similarly, CD163, another member of the scavenger receptor family, is the receptor for hemoglobin-haptoglobin complex. The upregulation of CD206 and CD163 in macrophages has been associated with the anti-inflammatory and tissue-repair phenotype,[33].
To generate human peripheral blood-derived macrophages, buffy coat was isolated from leukapheresis cones by Ficoll-Paque centrifugation. Monocytes were enriched from human PBMC by CD14 beads positive selection (Miltenyi Biotec) and cultured in IMDM supplanted with 10% human AB serum (omega scientific, Cat# HS-20) for 7 days for them to differentiate to macrophages.
Differentiated macrophages were then replated to low-bind plate at 0.15 million cells per 24-well plate, in 500 µl medium overnight before stimulated with various condition. […] Data were acquired on Cytek Aurora flowcytometry, analysis on Flowjo. MFI quantifications were normalized to M0 condition, and statistically analyzed by 2-way ANOVA, with Dunnett’s multiple comparisons test, all groups were pair-analyzed with M0 group as reference.

[4] = MFI fold-change normalized to M0, chemerin9 10 ng/mL 72 hours, IFNg 10 ng/ml plus LPS 10 ng/ml, IL-10 10 ng/ml, n=4 donors, Fig. 1a

Question: Which “CMKLR1 agonism / anti-inflammatory effect (in words)” value ([1]; synthetic peptides, ref [9]) does the source give for “chemerin15: synthetic peptide corresponding to the 141–155 amino acid segment of chemerin (AGEDPHSFYFPGQFA; UniProt Q99969 141-155, looked up, fragment)” here?
Answer: The value was “stable agonists of CMKLR1 that induce anti-inflammatory effects”.

Question: For `CC[C@@H](O)/C=C/C=C\C[C@@H](O)/C=C/C=C/C=C\[C@@H](O)CCCC(=O)O` [RvE1, resolvin E1], which “action on CMKLR1 (in words)” value ([1]; ref [25]–[27]) is on record?
Answer: Its value is “suggested to act on CMKLR1 to promote the resolution of inflammation”.

Question: For `C[N+](C)(C)CCC(=O)c1cccc2ccccc12.[I-]` [α-NETA], which “potency against CMKLR1 (antagonist)” value ([1]; small-molecule antagonist, ref [28]) is on record?
Answer: The value was “low micromolar potency”.

B1: dominant negative form of human Gαi1 (DNGαi1) (protein)
chain: GCTLSAEDKAAVERSKMIDRNLREDGEKAAREVKLLLLGAGESGKNTIVKQMKIIHEAGYSEEECKQYKAVVYSNTIQSIIAIIRAMGRLKIDFGDSARADDARQLFVLAGAAEEGFMTAELAGVIKRLWKDSGVQACFNRSREYQLNDSAAYYLNDLDRIAQPNYIPTQQDVLRTRVKTTGIVETHFTFKDLHFKMFDVGAQRSERKKWIHCFEGVTAIIFCVALSDYDLVLAEDEEMNRMHASMKLFDSICNNKWFTDTSIILFLNKKDLFEEKIKKSPLTICYPEYAGSNTYEEAAAYIQCQFEDLNKRKDTKEIYTHFTCSTDTKNVQFVFDAVTDVIIKNNLKDCGLF
Question: Does B1 bind [2]?
Answer: Result: binds

B2: IL-10: reference signal molecule to induce the M2-like macrophages (protein, UniProt P22301 19-178, looked up)
Interleukin-10: SPGQGTQSENSCTHFPGNLPNMLRDLRDAFSRVKTFFQMKDQLDNLLLKESLLEDFKGYLGCQALSEMIQFYLEEVMPQAENQDPDIKAHVNSLGENLKTLRLRLRRCHRFLPCENKSKAVEQVKNAFNKLQEKGIYKAMSEFDIFINYIEAYMTMKIRN
Question: For B2, which “statistical significance of marker changes” value ([3]; 2-way ANOVA with Dunnett's multiple comparisons vs M0, n=4) is on record?
Answer: Its value is “statistically insignificant”.

Question: What about the “CD86 expression (in words)” value [3, 4] of the same molecule?
Answer: The value was “downregulation”.

Question: What about the “CD163 expression (in words)” value [3, 4] of the same molecule?
Answer: The value was “upregulation”.

Question: What about the “CD206 expression (in words)” value [3, 4] of the same molecule?
Answer: Its value is “upregulation”.

Question: What about the “macrophage phenotype (in words)” value ([3]; overall, chemerin9 10 ng/mL, 72 hours) of the same molecule?
Answer: Its value is “consistent with an anti-inflammatory phenotype”.
